Test results reported in the supplement of paper PMC12764529.
± gives the half width of the 95% confidence interval.

Experiments:
[1] = folding stability dG unfold (combined trypsin and chymotrypsin); higher = more stable
In short: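 Unfolding free energy was derived, per protease or combined, by relating Bayesian-fitted K50 values from sequencing counts to a sequence-predicted unfolded-state K50 and a shared folded-state K50. The underlying digests exposed cysteine-free mini-proteins under 80 residues, in a PA-tagged cDNA display construct, to trypsin and chymotrypsin at 11 threefold-diluted concentrations and to a no-protease condition. A filter kept only designs with AlphaFold2 dimer inter-PAE above 15.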

[2] = folding stability dG unfold from trypsin proteolysis; higher = more stable
Protocol: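 Folding stability of de novo designed mini-proteins (<80 aa, no Cys; designed by TrROS, TrMRF, ProteinMPNN and the joint model) was measured by cDNA display proteolysis with trypsin and chymotrypsin. Each protease was used at 11 concentrations in a threefold dilution series plus a no-protease condition. K50 was inferred by Bayesian fitting of sequencing counts, and dG unfold was derived against a sequence-predicted unfolded-state K50 (Tsuboyama et al. method). Sequences shown include variable-length N-terminal GS-type padding (SAGGSAGG...) inside a display construct carrying a PA tag. Rows were kept only if the AF2 dimer inter-PAE was >15, to exclude likely homo-oligomers.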

Sequence	folding stability dG unfold [1] [kcal/mol]	folding stability dG unfold [2] [kcal/mol]
SAGGSAGGSAGGPPEITVEHHPPNGYMTLTIPDGRPIEIPMPPNRPPSDVKNRAKDLIKSAGGSAGGSAGGS [r10_33_TrROS]	< -1	-0.457 ± 0.39
SAGNPKIIEEETIPMPDGGPMKIYVDPEAPRIEIYNPDNGKPEEFPIPPGEKLEFPMPPDGWMTVKVLSAGG [r19_118_TrROS]	< -1	-0.279 ± 0.14
SAGGSAVPPSANVGPLKEKIEVTEDPEKGTKTYTRVLKDPATGKTIVETSVIPPDGSVTLVKTVLVSAGGSA [r15_146_JUSTAS]	-0.307 ± 0.12	-0.0156 ± 0.073
SAGGNVEIERNPDGMITVEFPMKSPEQAIEEVKNFLQQQGWKIKDIPVERPPNGWVKITIPIKPPGASAGGS [r8_253_TrROS]	0.0774 ± 0.3	0.34 ± 0.057
SAGGSAGGMSTISVTVPPNVSVEEVKERLKKENPNSKYEILSVSKGPGTVKAKIAYDPLPEELLSAGGSAGG [r6_623_JUSTAS]	< -1	-0.782 ± 0.22
SAGGSAGGSAGGSMPKPKVIKVPVDPNVSKEEVAKEVLPKTGLNVESIEESEDVLYVLNSAGGSAGGSAGGS [r4_469_JUSTAS]	< -1	-1.11 ± 0.38
SAGGSANTIMIPFDDLTPDKILEAAEESPDPIMIHNPDNGRFLTVEVEDGGIDDVTWEPFDPEDFGSAGGSA [r15_751_TrROS]	-0.135 ± 0.18	0.499 ± 0.042
SAGGSAGGSGSMAEVEAIVERAKELGLVPKSITTDPATNKPVVDLQPPSPELLEADPEILALLSAGGSAGGS [r12_482_JUSTAS]	< -1	-0.585 ± 0.23
SAGGSAGGSATITISLGPPEYIEVYDPANGVKRKFPASVPKEEVAAEIEKEYPDTPVVFTTDASAGGSAGGS [r12_423_JUSTAS]	-0.172 ± 0.32	0.394 ± 0.06
SAGMTTETTEKTAPDGKTRTTTVTYPSEEKAADTTTVVVTETPVETDGSERILTTTTVYKNGVKVATTGSAG [r14_958_JUSTAS]	< -1	-0.851 ± 0.56
SAGGSAGGSSVLRVTVEIPETGETVELTVPPSVTEEDVRARIEAEGHAIEKIEVTESEVPPLASAGGSAGGS [r12_955_JUSTAS]	< -1	-0.358 ± 0.096
SAGGSAGGSAGMEDLVTVTETVETTDTLRDEGGTPTGTTTTTTTVTKLLSPEKVAALKEASAGGSAGGSAGG [r11_620_JUSTAS]	-0.85 ± 0.23	-0.116 ± 0.021
SAGGSAGGSAGGGMTVVPTLEFFPGTRLVVRPVVVRDAEGRVVEVEPEVTPLPPPTLSLLSAGGSAGGSAGG [r7_135_JUSTAS]	< -1	-0.353 ± 0.17
SAGGSALIVLEGDLDSVVALAKEAGDPNVKVEPVADFNDDPSEPRLYRITIERDGEPDGELLFLDPSAGGSA [r15_428_TrMRF]	< -1	-0.0896 ± 0.1
SAGMSSSEVIDIDAGPEKLKELVAKIKKESPNYTIVVTDPETGKPTLLDPSELKNIPGPVKLTITKYPQSAG [r5_437_JUSTAS]	< -1	-1.16 ± 0.66
SAGGSAGGSAGGMPVEVTEVASVTTLPNGTTKITIKTPTGTVTFDDPSKIPSSILKLLSSAGGSAGGSAGGS [r10_748_JUSTAS]	0.211 ± 0.1	0.703 ± 0.014
SMVKAKVEVNPETNAAVVEFELPELKVIALRVFDENNEVHTLVEVEIPPGPRVPLAEIPLKPNEELVLPLSA [r9_1172_TrMRF]	-0.685 ± 0.76	0.0917 ± 0.26
SAASTLKATLRPPDGSTLDVTVLDPGEGWLLQLGDGSERVSPEELEALLANDPSLVVEELTELPLEELSSAG [r14_336_JUSTAS]	-0.654 ± 0.2	0.175 ± 0.05
SAGGSAGGMTVPASSYEGVPLKVTVSRGDENVSAEEAEVTPLPDGTVVVKLPESLPEDTEVTLESAGGSAGG [r6_630_JUSTAS]	-0.137 ± 0.13	0.703 ± 0.047
SAGGSAGGSAGGEESRRVTVTETVYPVYPGVGIIRVTRTVTTPDATTTSTTLVFVPPGLPSAGGSAGGSAGG [r17_465_JUSTAS]	< -1	-0.433 ± 0.24
SAGGSAGGSMKVITVPLPDGGTTTYEVEKGKVTITYPPSVTKEIEVPDPSKAIENIETVSYKSSAGGSAGGS [r12_32_JUSTAS]	< -1	-0.76 ± 0.13
SAGGSASIDELKEEILAKTPPDVVTTGYATSSDSLSTRTYSTPAGHRVVISYTDNEIKSVSLEKAGSAGGSA [r15_175_JUSTAS]	-0.138 ± 0.22	0.333 ± 0.16
SAGGSAGGSAPAEFPIEILEVERNPGNPMVEVGIKIPGDGRYIKIHFPPNGKIDIELVPLPSAGGSAGGSAG [r3_294_TrROS]	-0.29 ± 0.16	0.265 ± 0.1
SAGGSAGGSMPLRLAPVPIFLPEEEAVPVIEKLIEEGTEGGVGLIVPNVISPEEAGVHPDEPVSAGGSAGGS [r12_93_TrMRF]	< -1	-0.263 ± 0.08

Sequence	folding stability dG unfold [1] [kcal/mol]	folding stability dG unfold [2] [kcal/mol]
SAGGSAGGSMVEIDPDNLVLTIVDPETGKAAVITAPPTADGTPVIKDVVVFDPDGNPHTFTVDSAGGSAGGS [r12_952_TrMRF]	0.13 ± 0.091	0.666 ± 0.022
SAGGSAGGSAGTSTTVTEKPDPNSNRTYTTTTVERTTADGTTTTVTTTVYPDSTTSTTTASAGGSAGGSAGG [r11_987_JUSTAS]	0.0978 ± 0.2	0.557 ± 0.094
SAGGMLLYEKTVTSSPDDEALKLAKEIEEKLTPPDYITKIKVEVTPLPNGTYKVTIPIEILPPGYPKSAGGS [r16_128_JUSTAS]	-0.426 ± 0.19	-0.0273 ± 0.076
SAGGPNIEIEQERHPDDGMWTINVKWDNPAEIVEEIAKEIREQNRDIPIMITGPDGNPIMIPLDDIRSAGGS [r8_236_TrROS]	-0.817 ± 0.39	0.177 ± 0.049
SAGGMTFVKVKPAPVKFGEGDKEYWVVEIVKVLEVEDVGEKPVVKAEKETIIIPKDNPDALKEAGIDASAGG [r13_670_TrMRF]	< -1	-1.02 ± 0.22
SAGGSDYVGRVQIDKVDPEDPGQVRINLEWWQPNGKAIPIEHTIPNEQLKNNPPDATIEFKMEPPPSAGGSA [r2_128_TrROS]	< -1	-0.514 ± 0.32
SAGGSAGGSAGGSMKVEPLPHPDRPVTVETTPDSITVTDPANPPATTTFSSSSTVSVDSSAGGSAGGSAGGS [r4_321_JUSTAS]	-0.505 ± 0.44	-0.122 ± 0.078
DWKTRTVMFPVPPGDLEEAKDRAKELAKELPPGNKIEIEMPNPDGHYFMVTVTVDPNGEIDIDVSPGMRPIS [r1_350_TrROS]	-0.547 ± 0.38	-0.418 ± 0.29
SAGGSAGGSAGGDSSAPKPVIVEEGSVILEVKRDPKHGVITILSRNPLGGELITYEIPRSAGGSAGGSAGGS [r10_427_JUSTAS]	< -1	-0.563 ± 0.28
SAGGSAGGSAGGSDELLKELAQENGMKVTAEPMPEEGHFNIEVQSPNGKPIEIEIPLDDSAGGSAGGSAGGS [r4_121_TrROS]	-0.0556 ± 0.26	0.128 ± 0.15
SAGGSAGGSAGGSALDPSAKVTVDRGDGKLVAVHVYPPGGKPVVILLPEEDAKKILEEVSAGGSAGGSAGGS [r4_16_TrMRF]	-0.726 ± 0.44	0.416 ± 0.031
SAGGSAGGSAVKVIPFPFNEALDLLNSGEPKEIHVVGPPGWYMTVQFNPPDNNIEIDDPVPPSAGGSAGGSA [r18_400_TrROS]	0.194 ± 0.14	0.732 ± 0.043
SAGGSAGGSAGGMVVTVKVGDETIEIDTETGTATVTPPATGTTTTVPASEVEPITPELLSAGGSAGGSAGGS [r10_709_JUSTAS]	0.123 ± 0.065	0.945 ± 0.076
SAGGSAGGSAGGKKTIWIPVKIEPVPDGVRIKFPDGNPIIIPPNHKVEHTPGWMRITLDSAGGSAGGSAGGS [r10_305_TrROS]	-0.908 ± 0.86	-0.293 ± 0.18
SAGGSAGGSAGGMTITLEFTTEEEVEAYAKEIGATKVEVTREKTETPEERIKATIEKPGSAGGSAGGSAGGS [r10_494_JUSTAS]	< -1	-0.365 ± 0.74
SMPVTFTMKTPENRKKLEEAIKEIEEEYPIKVEEVEKDPKGTYTYKVEMDPEIIEKVKKKLEEAGNVTLESA [r9_472_JUSTAS]	-0.822 ± 0.97	-0.343 ± 0.23
SAGGSAGGSAGGGMKVVIPKEEAEKKGLTEAKLKEIEEKLKAKGIKVEIKLISSEEPELLSAGGSAGGSAGG [r7_972_JUSTAS]	< -1	0.136 ± 0.12
SAGKVEVKVDEETGTVTVTVEVNGELVEKKVEVKPPPPVKVFSAEELRERNPELKKLLEENPDKLVVLESAG [r5_957_TrROS_Hall]	< -1	-0.473 ± 0.26
SAGGSAGGSAGGSGMPQPTTVLTTEYYPPGVVVKKDIVYSPSGGAEEVEVSFYPSPELLSAGGSAGGSAGGS [r4_57_JUSTAS]	< -1	-1.08 ± 0.2
SAGGSAGGSAGPMIKIGSTTRPFTPPLGGRLEYAPIDVDQSEEVAKEVAEELKPKGVIVNLSAGGSAGGSAG [r3_157_JUSTAS]	< -1	-0.774 ± 0.35
SAGGPMKVQVAVWRRDPDNGEPKEVEIPMTWDNIRELLDDIPPDGRYMVKIHSPGQPQTIPLEDLKELSAGG [r13_254_TrROS]	< -1	0.153 ± 0.42
SAGGSAGGSAGFLVLVTDVKENPETGTFSIYLPSTGSVKTFPPNTKAVIPAAPDEPVFVAPESAGGSAGGSA [r18_329_TrMRF]	< -1	-0.314 ± 0.11
SAGGGVTREIPITIKTSEGEPEETITVPAKSREEVDPETGRPVSSVDPGSIEEIKAKLPSSVTSVVLSAGGS [r16_522_JUSTAS]	< -1	-0.68 ± 0.077
